Data reported in patent US20260055205A1 (published 2026).
Positions count from the first letter of the chain named.

B1: CD3.201 (bispecific antibody, V domains shown)
VH: EVQLLESGGGIVQPGGSLRLSCAASGFTFNTYAMNWVRQAPGKGLEWVGRIRSKRNNYATYYADSVKGRFTISRDDSKNTVYLQMNSLKTEDTAVYYCVRHENFGNSYVSWFAHWGQGTLVTVSS
VL: ELVVTQEPSLTVSPGGTVTLTCRSSNGAVTSSNYANWVQQKPGQAPRGLIGGTNKRAPGTPARFSGSLLGGKAALTLSGVQPEDEAVYYCALWYPNLWVFGGGTKLTVL
notes: paTCE with PSMA.262; also called AC3632
B2: CD3.209 (bispecific antibody, V domains shown)
VH: B1 VH with L5V, S87E
VL: B1 VL
notes: paTCE with PSMA.262; also called AC3640
B3: CD3.207 (bispecific antibody, V domains shown)
VH: B1 VH with R55Y, Y61T
VL: B1 VL
notes: paTCE with PSMA.262; also called AC3638
B4: CD3.217 (bispecific antibody, V domains shown)
VH: B1 VH with L5V, N30S, R55Y, N57D
VL: B1 VL
notes: paTCE with PSMA.262; also called AC3648
B5: CD3.223 (bispecific antibody, V domains shown)
VH: B1 VH with L5V, S53T, R55Y, N57D, S87E
VL: B1 VL
notes: paTCE with PSMA.262; also called AC3654
B6: CD3.235 (bispecific antibody, V domains shown)
VH: B1 VH with L5V, R55Y, N57E
VL: B1 VL
notes: paTCE with PSMA.262; also called AC3666
B7: CD3.220 (bispecific antibody, V domains shown)
VH: B1 VH with L5V, N30S, S53T, S87E
VL: B1 VL
notes: paTCE with PSMA.262; also called AC3651
B8: CD3.204 (bispecific antibody, V domains shown)
VH: B1 VH with L5V, R55T
VL: B1 VL
notes: paTCE with PSMA.262; also called AC3635
B9: CD3.210 (bispecific antibody, V domains shown)
VH: B1 VH with L5V, N30S, S87E
VL: B1 VL
notes: paTCE with PSMA.262; also called AC3641
B10: CD3.218 (bispecific antibody, V domains shown)
VH: B1 VH with L5V, N30S, R55Y, Y61T
VL: B1 VL
notes: paTCE with PSMA.262; also called AC3649
B11: CD3.215 (bispecific antibody, V domains shown)
VH: B1 VH with L5V, N30S
VL: B1 VL
notes: paTCE with PSMA.262; also called AC3646
B12: CD3.232 (bispecific antibody, V domains shown)
VH: B1 VH with L5V, N30S, S53T, R55Y, N57D
VL: B1 VL
notes: paTCE with PSMA.262; also called AC3663
B13: CD3.205 (bispecific antibody, V domains shown)
VH: B1 VH with R55Y, N57D
VL: B1 VL
notes: paTCE with PSMA.262; also called AC3636
B14: CD3.239 (bispecific antibody, V domains shown)
VH: B1 VH with L5V, G49A, Y61T, G68D
VL: B1 VL
notes: paTCE with PSMA.262; also called AC3670
B15: CD3.224 (bispecific antibody, V domains shown)
VH: B1 VH with L5V, N30S, S53T, R55Y, N57D, S87E
VL: B1 VL
notes: paTCE with PSMA.262; also called AC3655
B16: CD3.202 (bispecific antibody, V domains shown)
VH: B1 VH with L5V
VL: B1 VL
notes: paTCE with PSMA.262; also called AC3633
B17: CD3.225 (bispecific antibody, V domains shown)
VH: B1 VH with L5V, S53T, R55Y, Y61T, S87E
VL: B1 VL
notes: paTCE with PSMA.262; also called AC3656
B18: CD3.206 (bispecific antibody, V domains shown)
VH: B1 VH with L5V, R55Y, N57D
VL: B1 VL
notes: paTCE with PSMA.262; also called AC3637
B19: CD3.208 (bispecific antibody, V domains shown)
VH: B1 VH with L5V, R55Y, Y61T
VL: B1 VL
notes: paTCE with PSMA.262; also called AC3639
B20: CD3.216 (bispecific antibody, V domains shown)
VH: B1 VH with L5V, N30S, R55T
VL: B1 VL
notes: paTCE with PSMA.262; also called AC3647
B21: CD3.221 (bispecific antibody, V domains shown)
VH: B1 VH with L5V, S53T, R55T, S87E
VL: B1 VL
notes: paTCE with PSMA.262; also called AC3652
B22: CD3.226 (bispecific antibody, V domains shown)
VH: B1 VH with L5V, N30S, S53T, R55Y, Y61T, S87E
VL: B1 VL
notes: paTCE with PSMA.262; also called AC3657
B23: CD3.212 (bispecific antibody, V domains shown)
VH: B1 VH with L5V, N30S, R55T, S87E
VL: B1 VL
notes: paTCE with PSMA.262; also called AC3643
B24: CD3.219 (bispecific antibody, V domains shown)
VH: B1 VH with L5V, S53T, S87E
VL: B1 VL
notes: paTCE with PSMA.262; also called AC3650
B25: CD3.236 (bispecific antibody, V domains shown)
VH: B1 VH with L5V, R55Y, Y58G
VL: B1 VL
notes: paTCE with PSMA.262; also called AC3667
B26: CD3.240 (bispecific antibody, V domains shown)
VH: B1 VH with L5V, G49A, R55K, Y61T, G68D
VL: B1 VL
notes: paTCE with PSMA.262; also called AC3671
B27: CD3.211 (bispecific antibody, V domains shown)
VH: B1 VH with L5V, R55T, S87E
VL: B1 VL
notes: paTCE with PSMA.262; also called AC3642
B28: CD3.237 (bispecific antibody, V domains shown)
VH: B1 VH with L5V, R55Y, Y58G, S87E
VL: B1 VL
notes: paTCE with PSMA.262; also called AC3668
B29: CD3.214 (bispecific antibody, V domains shown)
VH: B1 VH with L5V, N30S, R55Y, N57D, S87E
VL: B1 VL
notes: paTCE with PSMA.262; also called AC3645
B30: CD3.231 (bispecific antibody, V domains shown)
VH: B1 VH with L5V, S53T, R55Y, N57D
VL: B1 VL
notes: paTCE with PSMA.262; also called AC3662
B31: CD3.222 (bispecific antibody, V domains shown)
VH: B1 VH with L5V, N30S, S53T, R55T, S87E
VL: B1 VL
notes: paTCE with PSMA.262; also called AC3653
B32: CD3.233 (bispecific antibody, V domains shown)
VH: B1 VH with L5V, S53T, R55Y, Y61T
VL: B1 VL
notes: paTCE with PSMA.262; also called AC3664
B33: CD3.234 (bispecific antibody, V domains shown)
VH: B1 VH with L5V, N30S, S53T, R55Y, Y61T
VL: B1 VL
notes: paTCE with PSMA.262; also called AC3665
B34: CD3.213 (bispecific antibody, V domains shown)
VH: B1 VH with L5V, R55Y, N57D, S87E
VL: B1 VL
notes: paTCE with PSMA.262; also called AC3644
B35: CD3.238 (bispecific antibody, V domains shown)
VH: B1 VH with L5V, G49A, S53T, R55Y, Y61T, G68D
VL: B1 VL
notes: paTCE with PSMA.262; also called AC3669

The binders below were run against T1, human CD3 epsilon (human, UniProt P07766 23-126, limits assumed) (assay: Octet, crude lysate).
T1 construct: also called huCD3e
T1 sequence (P07766 23-126 limits assumed): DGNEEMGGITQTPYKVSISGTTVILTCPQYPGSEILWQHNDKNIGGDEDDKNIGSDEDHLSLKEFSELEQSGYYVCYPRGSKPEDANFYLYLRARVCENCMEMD
Description: Pool 2 consisted of paTCE molecules each containing PSMA.262 and one of 64 CD3.23 mutation combination variants. Stability and affinity of the individually expressed molecules in the form of crude lysate was evaluated by Octet. […] The binding of these anti-CD3 molecules (CD3.227, CD3.228, CD3.229 and CD3.230) to human and cynomolgus CD3 was measured by Octet and the Tm was measured by Differential Scanning Fluorimetry. All variants were paired with PSMA.262 except for CD3.23 which was paired with PSMA.5.

Binder	Kd [nM]
B1	8.6
B2	5.6
B3	15.6
B4	10.7
B5	6
B6	6.5
B7	4.8
B8	7.2
B9	5.7
B10	52.6
B11	9.7
B12	5.1
B13	7.2
B14	29.9
B15	6.4
B16	8.4
B17	19.5
B18	10.3

Binder	Kd [nM]
B19	16.8
B20	11.2
B21	11.7
B22	50.9
B23	35.6
B24	4.7
B25	21.9
B26	16.5
B27	9.5
B28	22.2
B29	6.6
B30	5.1
B31	10.8
B32	24.9
B33	17.4
B34	6.6
B35	23.1
